These results are taken from US20150203577A1 (Chugai, published 2015).

In experiment [1] the target is T1, mouse FcγRII (mouse, UniProt P08101 30-210).
T1 construct: Extracellular domain with C-terminal His tag; also called mFcγRII; mFcgRII
T1 sequence: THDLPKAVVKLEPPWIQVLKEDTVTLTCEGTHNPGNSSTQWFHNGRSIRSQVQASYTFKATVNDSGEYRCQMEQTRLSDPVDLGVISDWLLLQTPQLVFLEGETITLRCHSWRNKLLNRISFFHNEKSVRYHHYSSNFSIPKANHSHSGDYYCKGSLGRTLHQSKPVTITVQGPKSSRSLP
Put plainly: SPR (Biacore T200); KD of H237-MB630/MRAL-k0 / KD of variant. For orientation: In SPR one partner is held on a chip, and binding of the other changes the refractive index at the surface.

For experiment [2], the target named is T2, mouse FcγRIII (mouse, UniProt P08508 31-215).
T2 construct: Extracellular domain with C-terminal His tag; also called mFcγRIII; mFcgRIII
T2 chain: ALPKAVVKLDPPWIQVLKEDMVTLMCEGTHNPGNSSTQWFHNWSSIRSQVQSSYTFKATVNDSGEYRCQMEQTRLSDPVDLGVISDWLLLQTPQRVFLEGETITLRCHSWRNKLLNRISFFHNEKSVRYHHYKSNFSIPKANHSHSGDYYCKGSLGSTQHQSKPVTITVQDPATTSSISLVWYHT
Described as above.

Experiment [3] concerns the target T1, mouse FcγRII. Put plainly: SPR (Biacore T200); KD of H237-mIgG1/MRAL-k0 / KD of variant.
Experiment [4] addresses T2, mouse FcγRIII. The description is as above.

B1: MB834 (antibody, mouse IgG1, kappa)
heavy: QVQLQESGPGLVKPSETLSLTCAVSGHSISHDHAWSWVRQPPGEGLEWIGFISYSGITNYNPSLQGRVTISRDNSKNTLYLQMNSLRAEDTAVYYCARSLARTTAMDYWGEGTLVTVSSAKTTPPSVYPLAPGSAAQTNSMVTLGCLVKGYFPEPVTVTWNSGSLSSGVHTFPAVLQSDLYTLSSSVTVPSSTWPSETVTCNVAHPASSTKVDKKIVPRDCGCKPCICEPNEVELVFIFPPKPKDVLTITLTPKVTCVVVDISKDDPEVQFSWFVDDVEVHTAQTQPREEQFNSTFRSVSELPIMHQDWLNGKEFKCRVNSAAFPAPIYRTISKTKGRPKAPQVYTIPPPKEQMAKDKVSLTCMITDFFPEDITVEWQWNGQPAENYKNTQPIMDTDGSYFVYSKLNVQKSNWEAGNTFTCSVLHEGLHNHHTEKSLSHSPGK
light: not shown
notes: CH name; VH H237 + CH, L chain MRAL-k0; copies: 2 + 2
In the case of B1, the “Relative mFcγRII-binding activity (MB630 = 1)” value in the experiment with mouse FcγRII [1] worked out at 1.29 fold. For the same molecule, the “Relative mFcγRIII-binding activity (MB630 = 1)” value with mouse FcγRIII [2] was determined as 1.25 fold. In addition, the “relative mFcγRII-binding activity (mIgG1 = 1)” value with mouse FcγRII [3] is 17 fold. In the experiment with mouse FcγRIII [4], the “relative mFcγRIII-binding activity (mIgG1 = 1)” value is 0.29 fold.

B2: MB846 (antibody, mouse IgG1, kappa)
heavy: QVQLQESGPGLVKPSETLSLTCAVSGHSISHDHAWSWVRQPPGEGLEWIGFISYSGITNYNPSLQGRVTISRDNSKNTLYLQMNSLRAEDTAVYYCARSLARTTAMDYWGEGTLVTVSSAKTTPPSVYPLAPGSAAQTNSMVTLGCLVKGYFPEPVTVTWNSGSLSSGVHTFPAVLQSDLYTLSSSVTVPSSTWPSETVTCNVAHPASSTKVDKKIVPRDCGCKPCICEPNEVELVFIFPPKPKDVLTITLTPKVTCVVVDISDDDPEVQFSWFVDDVEVHTAQTQPREEQFNSTFRSVSELPIMHQDWLNGKEFKCRVNSDGFPAPIEKTISKTKGRPKAPQVYTIPPPKEQMAKDKVSLTCMITDFFPEDITVEWQWNGQPAENYKNTQPIMDTDGSYFVYSKLNVQKSNWEAGNTFTCSVLHEGLHNHHTEKSLSHSPGK
light: not shown
notes: as for B1
Turning to B2, the “Relative mFcγRII-binding activity (MB630 = 1)” value with mouse FcγRII [1] amounted to 6.8 fold. Further, the “Relative mFcγRIII-binding activity (MB630 = 1)” value with mouse FcγRIII [2] turned out to be 11.6 fold. For the same molecule, the “relative mFcγRII-binding activity (mIgG1 = 1)” value with mouse FcγRII [3] is 72.1 fold. The “relative mFcγRIII-binding activity (mIgG1 = 1)” value in the experiment with mouse FcγRIII [4] was 2.12 fold.

B3: MB847 (antibody, mouse IgG1, kappa)
heavy: QVQLQESGPGLVKPSETLSLTCAVSGHSISHDHAWSWVRQPPGEGLEWIGFISYSGITNYNPSLQGRVTISRDNSKNTLYLQMNSLRAEDTAVYYCARSLARTTAMDYWGEGTLVTVSSAKTTPPSVYPLAPGSAAQTNSMVTLGCLVKGYFPEPVTVTWNSGSLSSGVHTFPAVLQSDLYTLSSSVTVPSSTWPSETVTCNVAHPASSTKVDKKIVPRDCGCKPCICEPNEVELVFIFPPKPKDVLTITLTPKVTCVVVDISKDDPEVQFSWFVDDVEVHTAQTQPREELFNSTFRSVSELPIMHQDWLNGKEFKCRVNSDGFPAPIEKTISKTKGRPKAPQVYTIPPPKEQMAKDKVSLTCMITDFFPEDITVEWQWNGQPAENYKNTQPIMDTDGSYFVYSKLNVQKSNWEAGNTFTCSVLHEGLHNHHTEKSLSHSPGK
light: not shown
notes: as for B1
Consider B3, for which the “Relative mFcγRII-binding activity (MB630 = 1)” value with mouse FcγRII [1] was 4.12 fold. In addition, in the experiment with mouse FcγRIII [2], the “Relative mFcγRIII-binding activity (MB630 = 1)” value was determined as 7.24 fold. The “relative mFcγRII-binding activity (mIgG1 = 1)” value with mouse FcγRII [3] came out at 43.7 fold. The “relative mFcγRIII-binding activity (mIgG1 = 1)” value with mouse FcγRIII [4] is 1.33 fold.

B4: MB835 (antibody, mouse IgG1, kappa)
heavy: QVQLQESGPGLVKPSETLSLTCAVSGHSISHDHAWSWVRQPPGEGLEWIGFISYSGITNYNPSLQGRVTISRDNSKNTLYLQMNSLRAEDTAVYYCARSLARTTAMDYWGEGTLVTVSSAKTTPPSVYPLAPGSAAQTNSMVTLGCLVKGYFPEPVTVTWNSGSLSSGVHTFPAVLQSDLYTLSSSVTVPSSTWPSETVTCNVAHPASSTKVDKKIVPRDCGCKPCICEPNEVELVFIFPPKPKDVLTITLTPKVTCVVVDISDDDPEVQFSWFVDDVEVHTAQTQPREEQFNSTFRSVSELPIMHQDWLNGKEFKCRVNSAAFPAPIEKTISKTKGRPKAPQVYTIPPPKEQMAKDKVSLTCMITDFFPEDITVEWQWNGQPAENYKNTQPIMDTDGSYFVYSKLNVQKSNWEAGNTFTCSVLHEGLHNHHTEKSLSHSPGK
light: not shown
notes: as for B1
For the molecule B4, the “Relative mFcγRII-binding activity (MB630 = 1)” value with mouse FcγRII [1] was 2 fold. Also, the “Relative mFcγRIII-binding activity (MB630 = 1)” value with mouse FcγRIII [2] turned out to be 3.05 fold. Besides, the “relative mFcγRII-binding activity (mIgG1 = 1)” value with mouse FcγRII [3] was 26.3 fold. Besides, the “relative mFcγRIII-binding activity (mIgG1 = 1)” value with mouse FcγRIII [4] was 0.7 fold.
